Drawing on US20250236644A1, “De Novo Designed Stimulus-responsive Two-state Hinge Proteins” (University of Washington, priority 2024, published 2025), this text covers kon and peptide binding for eight molecules.

B1: cs221_V111L_A111T: state Y-stabilizing double mutant of hinge cs221 (protein)
chain: MSGEMKEEIRRLAEELRERTKDEEVRELAREAARLAEESDDEEVKEVVKKALEAALKSKDEEVIRLLLLAAVLAAAAARSGSPEEKLEIAKKALELAMKSKDEEVIRLALLAALLATRSDDEEVLKKVKEALEKAMESKDVEEIRERLREAVEVARAGSGSHHWGSTHHHHHH
B2: cs221_A73E: hinge cs221 with point mutation A73E (protein)
chain: MSGEMKEEIRRLAEELRERTKDEEVRELAREAARLAEESDDEEVKEVVKKALEAALKSKDEEVIRLLLLAAVLAAEAARSGSPEEKLEIAKKALELAMKSKDEEVIRLALLAAVLAARSDDEEVLKKVKEALEKAMESKDVEEIRERLREAVEVARAGSGSHHWGSTHHHHHH
B3: cs221_V111L: hinge cs221 with point mutation V111L (protein)
chain: MSGEMKEEIRRLAEELRERTKDEEVRELAREAARLAEESDDEEVKEVVKKALEAALKSKDEEVIRLLLLAAVLAAAAARSGSPEEKLEIAKKALELAMKSKDEEVIRLALLAALLAARSDDEEVLKKVKEALEKAMESKDVEEIRERLREAVEVARAGSGSHHWGSTHHHHHH
B4: cs221_lockedY: cs221 variant with disulfide that locks state Y, SEQ ID NO:20 (protein)
chain: MSGEMKEEIRRLAEELRERTKDEEVRELAREAARLAEESDDEEVKEVVKKALEAALKSKDEEVIRLLLCAAVLAAAAARSGSPEEKLEIAKKALELAMKSKDEEVIRLACLAAVLAARSDDEEVLKKVKEALEKAMESKDVEEIRERLREAVEVARAGSGSHHWGSTHHHHHH
B5: cs221_L66T: hinge cs221 with point mutation L66T (protein)
chain: MSGEMKEEIRRLAEELRERTKDEEVRELAREAARLAEESDDEEVKEVVKKALEAALKSKDEEVIRLLLTAAVLAAAAARSGSPEEKLEIAKKALELAMKSKDEEVIRLALLAAVLAARSDDEEVLKKVKEALEKAMESKDVEEIRERLREAVEVARAGSGSHHWGSTHHHHHH
B6: cs221_A114T: hinge cs221 with point mutation A114T (protein)
chain: MSGEMKEEIRRLAEELRERTKDEEVRELAREAARLAEESDDEEVKEVVKKALEAALKSKDEEVIRLLLLAAVLAAAAARSGSPEEKLEIAKKALELAMKSKDEEVIRLALLAAVLATRSDDEEVLKKVKEALEKAMESKDVEEIRERLREAVEVARAGSGSHHWGSTHHHHHH
B7: cs221: designed hinge protein, SEQ ID NO:10 (protein)
chain: MSGEMKEEIRRLAEELRERTKDEEVRELAREAARLAEESDDEEVKEVVKKALEAALKSKDEEVIRLLLLAAVLAAAAARSGSPEEKLEIAKKALELAMKSKDEEVIRLALLAAVLAARSDDEEVLKKVKEALEKAMESKDVEEIRERLREAVEVARAGSGSHHWGSTHHHHHH
B8: cs221_lockedX: cs221 variant with disulfide that locks state X, SEQ ID NO:19 (protein)
chain: MSGEMKEEIRRLAEELRERTKDEEVRELAREAARLAEESDDEEVKEVVKKALEAALKSKDEEVIRLLLLAAVCAAAAARSGSPEEKLEIAKKALELAMKSKDEEVIRLALLAAVLACRSDDEEVLKKVKEALEKAMESKDVEEIRERLREAVEVARAGSGSHHWGSTHHHHHH

The first test deals with TAMRA-cs221B. The test can be described thus: FP titration and kinetics, hinge vs TAMRA-cs221B. The class given is binding. To be noted: Effector TAMRA-cs221B; method FP. The method, then: All FP measurements were performed at 25° C. in 96-well plates (Corning 3686) using a Synergy Neo2™ plate reader and a 530/590 nm filter cube. The buffer for all FP measurements was 20 mM Tris-HCl, 100 mM NaCl, 0.05% v/v TWEEN20 at pH 8. Titrations were carried out in 96-well format, with 4 replicates per plate and 24 data points per titration (23 steps of two-fold serial dilution of hinges in the presence of TAMRA-labeled peptide at a constant concentration between 0.1 nM and 1 nM) with a final sample volume of 80 μl per well. Titration plates were incubated overnight at room temperature before measuring to ensure complete equilibration. The polarization signal S (as calculated by the Neo2™ software) was fitted to the equation
TAMRA-cs221B, sequence (as listed by the source): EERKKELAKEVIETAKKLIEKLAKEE
where fAB is the fraction of peptide that is bound, Atot is the absolute hinge concentration, Btot is the absolute peptide concentration, S0 is the baseline polarization of free peptide, and S1 is the change in polarization upon complex formation.
Fitting was performed using the scipy.optimize.curve_fit python function (53). Uncertainties for KD values are standard deviation errors calculated from the covariance matrix of the fits. In cases where the fitted KD was lower than the concentration of the labeled peptide Btot, we report the KD as KD<Btot.
For FP kinetics experiments a 2× peptide solution and 8 different 2× hinge solutions at different concentrations were prepared separately. 40 μl of each hinge solution were mixed with 40 μl peptide solution using a multichannel pipet and the measurement was started immediately after mixing. Polarization signals S at each concentration were fitted individually to the equation
where S0 is the amplitude, S1 is the polarization at equilibrium, kapp is the apparent rate constant, t is the time after start of the measurement, and t0 is the dead time between mixing and start of the measurement. For each hinge-peptide pair, the apparent rate constants for 8 different concentrations are fitted to the equation
where koff and kon are observed off- and on rates and Atot is the absolute hinge concentration.
Take B1: the kon came to 76200 M⁻¹ s⁻¹.

As to B2, the kon worked out at 1900 M⁻¹ s⁻¹. B3: the association rate constant (kon) is 24300 M⁻¹ s⁻¹. For the molecule B4, the kon was found to be 790000 M⁻¹ s⁻¹. As for B5, the association rate constant (kon) was 2700 M⁻¹ s⁻¹. With B6, the kon was determined as 27700 M⁻¹ s⁻¹. Take B7: the kon is 3400 M⁻¹ s⁻¹.

The same test, now with this note: FP; oxidizing conditions (disulfide formed).
Regarding B8, the peptide binding entry was “only weak residual binding”.

Staying with this test, now noted: FP; upon addition of reducing agent DTT.
On to B8, for which the peptide binding result is “fully restored”.
